Here are results for 71 substances from article PMC11046469, “Leveraging a Phage-Encoded Noncanonical Amino Acid: A Novel Pathway to Potent and Selective Epigenetic Reader Protein Inhibitors” (ACS Central Science, 2024).

This test addresses T1, ENL YEATS domain (AviSUMO-ENL YEATS) (Homo sapiens, UniProt Q03111).
T1 construct: encoding ENL YEATS (aa 1−148) was cloned in pET28a-; made in house; host or cells: E. coli BL21(DE3pLysS), co-expressed with BirA (pBirAcm)
T1 sequence (Q03111 1-148): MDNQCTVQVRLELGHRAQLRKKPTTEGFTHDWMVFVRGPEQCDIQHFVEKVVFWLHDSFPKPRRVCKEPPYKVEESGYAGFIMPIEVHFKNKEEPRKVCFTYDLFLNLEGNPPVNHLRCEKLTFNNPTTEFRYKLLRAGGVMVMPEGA
Put plainly: Phage panning of BuK-containing 7-mer library against AviSUMO-ENL YEATS with Illumina NGS abundance. The note with it: TAG = amber codon (BuK); for n (number of NGS reads of the unique amino acid sequence) / percent (share of sequence reads): sheet ENLR3: round 3 of panning against ENL YEATS, 7-mer library positions V1-V7; for n (number of NGS reads of the 7-mer sequence V1-V7) / percent (share of NGS reads of the 7-mer sequence V1-V7): sheet ENLR3: round 3 of selection against ENL YEATS. In outline:
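Phage displaying BuK-containing amber-obligate 7-mer peptides, made with 5 mM BuK, was panned against biotinylated AviSUMO-ENL YEATS on streptavidin beads with washes of rising stringency. Rounds 1 and 3 were sequenced by Illumina NGS, and sequences with mismatches were filtered out before copy-number abundance was counted.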

Regarding VYCYTAGVW, the “n (number of NGS reads of the unique amino acid sequence)” value worked out at 3 and the “percent (share of sequence reads)” value was determined as 0.002732%.
Consider WCFMVFL, for which the “n (number of NGS reads of the 7-mer sequence V1-V7)” value was determined as 1 and the “percent (share of NGS reads of the 7-mer sequence V1-V7)” value is 0.0009106%.
Take WCGPRTAGD: the “n (number of NGS reads of the unique amino acid sequence)” value is given as 2 and the “percent (share of sequence reads)” value came out at 0.001821%.
As to WCIIETAGG, the “n (number of NGS reads of the unique amino acid sequence)” value stood at 19 and the “percent (share of sequence reads)” value turned out to be 0.0173%.
For WFILYTAGD, in that order: 25 and 0.02277%.
As for WFIYTAGGC, the “n (number of NGS reads of the 7-mer sequence V1-V7)” value worked out at 1 and the “percent (share of NGS reads of the 7-mer sequence V1-V7)” value stood at 0.0009106%.
Consider WLAWRHL, for which the “n (number of NGS reads of the 7-mer sequence V1-V7)” value was found to be 1 and the “percent (share of NGS reads of the 7-mer sequence V1-V7)” value stood at 0.0009106%.
For WLIIETAGD, the “n (number of NGS reads of the unique amino acid sequence)” value was found to be 2 and the “percent (share of sequence reads)” value is 0.001821%.
Turning to WLIIETAGG, the “n (number of NGS reads of the unique amino acid sequence)” value is listed as 30 and the “percent (share of sequence reads)” value is on record as 0.02732%.
WNCLYTAGD: the “n (number of NGS reads of the unique amino acid sequence)” value came out at 4 and the “percent (share of sequence reads)” value is reported as 0.003642%.
For WQDTTAGTY, in that order: 2 and 0.001821%.
In the case of WRIIETAGG, the “n (number of NGS reads of the unique amino acid sequence)” value was determined as 9 and the “percent (share of sequence reads)” value was 0.008196%.
For the substance WSIIETAGG, the “n (number of NGS reads of the unique amino acid sequence)” value was 3 and the “percent (share of sequence reads)” value came out at 0.002732%.
With WTAGIIETAGG, the “n (number of NGS reads of the unique amino acid sequence)” value was found to be 4 and the “percent (share of sequence reads)” value worked out at 0.003642%.
As to WTVYCYTAG, the “n (number of NGS reads of the unique amino acid sequence)” value stood at 3 and the “percent (share of sequence reads)” value came out at 0.002732%.
For the substance WWFIETAGG, the “n (number of NGS reads of the 7-mer sequence V1-V7)” value amounted to 1 and the “percent (share of NGS reads of the 7-mer sequence V1-V7)” value is recorded as 0.0009106%.
For WWIFETAGG, in that order: 1 and 0.0009106%.
Turning to WWIIATAGG, the “n (number of NGS reads of the 7-mer sequence V1-V7)” value was determined as 1 and the “percent (share of NGS reads of the 7-mer sequence V1-V7)” value was determined as 0.0009106%.
WWIIDTAGG: the “n (number of NGS reads of the unique amino acid sequence)” value is listed as 29 and the “percent (share of sequence reads)” value is 0.02641%.
For WWIIEKG, in that order: 2 and 0.001821%.
With WWIIELG, the “n (number of NGS reads of the 7-mer sequence V1-V7)” value is listed as 1 and the “percent (share of NGS reads of the 7-mer sequence V1-V7)” value came out at 0.0009106%.
On to WWIIEQG, for which the “n (number of NGS reads of the unique amino acid sequence)” value is given as 2 and the “percent (share of sequence reads)” value is reported as 0.001821%.
WWIIETAGD: the “n (number of NGS reads of the unique amino acid sequence)” value is given as 23 and the “percent (share of sequence reads)” value turned out to be 0.02094%.
The corresponding values for WWIIETAGE are 10 and 0.009106%.
In the case of WWIIETAGG, the “n (number of NGS reads of the unique amino acid sequence)” value was 33339 and the “percent (share of sequence reads)” value is 30.359%.
For WWIIETAGR, in that order: 6 and 0.005464%.
The corresponding values for WWIIETAGV are 16 and 0.01457%.
The corresponding values for WWIIETAGW are 27 and 0.02459%.
In the case of WWIIEWG, the “n (number of NGS reads of the unique amino acid sequence)” value is reported as 3 and the “percent (share of sequence reads)” value is reported as 0.002732%.
For WWIIEYG, in that order: 29 and 0.02641%.
For WWIIGTAGG, the “n (number of NGS reads of the unique amino acid sequence)” value came to 6 and the “percent (share of sequence reads)” value is listed as 0.005464%.
On to WWIIKTAGG, for which the “n (number of NGS reads of the unique amino acid sequence)” value came to 9 and the “percent (share of sequence reads)” value came out at 0.008196%.
The corresponding values for WWIITAGTAGG are 19 and 0.0173%.
For WWIIVTAGG, in that order: 4 and 0.003642%.
For the substance WWILETAGG, the “n (number of NGS reads of the 7-mer sequence V1-V7)” value was 1 and the “percent (share of NGS reads of the 7-mer sequence V1-V7)” value was found to be 0.0009106%.
The corresponding values for WWINETAGG are 1 and 0.0009106%.
WWITETAGG: the “n (number of NGS reads of the 7-mer sequence V1-V7)” value is 1 and the “percent (share of NGS reads of the 7-mer sequence V1-V7)” value is listed as 0.0009106%.
Take WWIVETAGG: the “n (number of NGS reads of the unique amino acid sequence)” value came out at 6 and the “percent (share of sequence reads)” value is 0.005464%.
Take WWTIETAGG: the “n (number of NGS reads of the unique amino acid sequence)” value was 2 and the “percent (share of sequence reads)” value is given as 0.001821%.
WWVAGPTAG: the “n (number of NGS reads of the unique amino acid sequence)” value turned out to be 70 and the “percent (share of sequence reads)” value is recorded as 0.06374%.
For WWVFDATAG, in that order: 10 and 0.009106%.
The corresponding values for WWVIETAGG are 4 and 0.003642%.
Take WWVLVTAGS: the “n (number of NGS reads of the 7-mer sequence V1-V7)” value was 1 and the “percent (share of NGS reads of the 7-mer sequence V1-V7)” value is reported as 0.0009106%.
With YAIYCYTAG, the “n (number of NGS reads of the unique amino acid sequence)” value is 7 and the “percent (share of sequence reads)” value was 0.006374%.
As for YAVYCYTAG, the “n (number of NGS reads of the 7-mer sequence V1-V7)” value is 1 and the “percent (share of NGS reads of the 7-mer sequence V1-V7)” value stood at 0.0009106%.
Consider YDAYCYTAG, for which the “n (number of NGS reads of the unique amino acid sequence)” value came to 11 and the “percent (share of sequence reads)” value amounted to 0.01002%.
The corresponding values for YDDYCYTAG are 2 and 0.001821%.
For the substance YDFYCYTAG, the “n (number of NGS reads of the unique amino acid sequence)” value is listed as 51 and the “percent (share of sequence reads)” value worked out at 0.04644%.
Regarding YDGPWTAGG, the “n (number of NGS reads of the 7-mer sequence V1-V7)” value was 1 and the “percent (share of NGS reads of the 7-mer sequence V1-V7)” value is 0.0009106%.
In the case of YDGYCYTAG, the “n (number of NGS reads of the 7-mer sequence V1-V7)” value was 1 and the “percent (share of NGS reads of the 7-mer sequence V1-V7)” value is reported as 0.0009106%.
For YDIYCYTAG, the “n (number of NGS reads of the unique amino acid sequence)” value is on record as 3 and the “percent (share of sequence reads)” value amounted to 0.002732%.
The corresponding values for YDLYCYTAG are 3 and 0.002732%.
Turning to YDVCCYTAG, the “n (number of NGS reads of the unique amino acid sequence)” value came out at 6 and the “percent (share of sequence reads)” value stood at 0.005464%.
Turning to YDVFCYTAG, the “n (number of NGS reads of the unique amino acid sequence)” value worked out at 8 and the “percent (share of sequence reads)” value is 0.007285%.
As to YDVHCYTAG, the “n (number of NGS reads of the unique amino acid sequence)” value was 5 and the “percent (share of sequence reads)” value is listed as 0.004553%.
In the case of YDVYCCTAG, the “n (number of NGS reads of the unique amino acid sequence)” value is reported as 5 and the “percent (share of sequence reads)” value worked out at 0.004553%.
The corresponding values for YDVYCFTAG are 2 and 0.001821%.
For YDVYCHTAG, in that order: 13 and 0.01184%.
With YDVYCNTAG, the “n (number of NGS reads of the unique amino acid sequence)” value came to 3 and the “percent (share of sequence reads)” value is recorded as 0.002732%.
For YDVYCSTAG, the “n (number of NGS reads of the 7-mer sequence V1-V7)” value was 1 and the “percent (share of NGS reads of the 7-mer sequence V1-V7)” value is recorded as 0.0009106%.
With YDVYCTAGTAG, the “n (number of NGS reads of the unique amino acid sequence)” value worked out at 3 and the “percent (share of sequence reads)” value came out at 0.002732%.
For the substance YDVYCYE, the “n (number of NGS reads of the 7-mer sequence V1-V7)” value is 1 and the “percent (share of NGS reads of the 7-mer sequence V1-V7)” value was 0.0009106%.
YDVYCYK: the “n (number of NGS reads of the 7-mer sequence V1-V7)” value is listed as 1 and the “percent (share of NGS reads of the 7-mer sequence V1-V7)” value was determined as 0.0009106%.
As for YDVYCYL, the “n (number of NGS reads of the unique amino acid sequence)” value is listed as 2 and the “percent (share of sequence reads)” value is recorded as 0.001821%.
With YDVYCYQ, the “n (number of NGS reads of the unique amino acid sequence)” value was determined as 15 and the “percent (share of sequence reads)” value stood at 0.01366%.
For YDVYCYTAG, the “n (number of NGS reads of the unique amino acid sequence)” value came to 60611 and the “percent (share of sequence reads)” value was determined as 55.1932%.
The corresponding values for YDVYCYW are 26 and 0.02368%.
YDVYCYY: the “n (number of NGS reads of the unique amino acid sequence)” value stood at 26 and the “percent (share of sequence reads)” value amounted to 0.02368%.
As for YDVYFYTAG, the “n (number of NGS reads of the unique amino acid sequence)” value turned out to be 47 and the “percent (share of sequence reads)” value came to 0.0428%.
On to YDVYRYTAG, for which the “n (number of NGS reads of the unique amino acid sequence)” value is listed as 9 and the “percent (share of sequence reads)” value is 0.008196%.
Turning to YDVYSYTAG, the “n (number of NGS reads of the unique amino acid sequence)” value stood at 3 and the “percent (share of sequence reads)” value is 0.002732%.
